Molecular target: Truncated TGF-β type III receptor encoded by partial rat cDNA clone R3-OF (rat) (UniProt P26342)
Test: total 125I-TGF-β binding per glass slide of COS cells transfected with the cDNA clone (calculated, data not shown)

Chain of Truncated TGF-β type III receptor encoded by partial rat cDNA clone R3-OF (rat) (P26342 24-818 L164V limits assumed): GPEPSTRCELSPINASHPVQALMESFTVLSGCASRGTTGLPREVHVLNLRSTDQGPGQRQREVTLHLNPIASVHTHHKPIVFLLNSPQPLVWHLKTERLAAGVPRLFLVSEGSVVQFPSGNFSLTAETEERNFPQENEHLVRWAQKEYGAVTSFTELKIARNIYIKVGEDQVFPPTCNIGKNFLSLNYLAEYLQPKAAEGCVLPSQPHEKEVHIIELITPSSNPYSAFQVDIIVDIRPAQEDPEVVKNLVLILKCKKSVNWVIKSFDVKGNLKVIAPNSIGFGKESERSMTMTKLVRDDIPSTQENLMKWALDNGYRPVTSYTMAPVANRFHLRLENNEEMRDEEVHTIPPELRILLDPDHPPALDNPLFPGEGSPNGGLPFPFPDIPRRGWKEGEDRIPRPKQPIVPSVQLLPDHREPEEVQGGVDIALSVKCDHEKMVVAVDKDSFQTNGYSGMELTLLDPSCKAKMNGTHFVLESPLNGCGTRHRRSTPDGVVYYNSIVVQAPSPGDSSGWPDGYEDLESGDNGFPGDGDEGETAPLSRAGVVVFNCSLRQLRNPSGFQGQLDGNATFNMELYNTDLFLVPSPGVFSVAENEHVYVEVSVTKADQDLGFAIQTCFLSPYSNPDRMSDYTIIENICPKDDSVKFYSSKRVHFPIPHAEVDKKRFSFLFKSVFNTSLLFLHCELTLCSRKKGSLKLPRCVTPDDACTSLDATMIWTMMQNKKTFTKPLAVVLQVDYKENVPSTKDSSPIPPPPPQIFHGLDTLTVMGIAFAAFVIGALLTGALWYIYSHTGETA
Chain of Recombinant human TGF-β1 (P01137 279-390 limits assumed): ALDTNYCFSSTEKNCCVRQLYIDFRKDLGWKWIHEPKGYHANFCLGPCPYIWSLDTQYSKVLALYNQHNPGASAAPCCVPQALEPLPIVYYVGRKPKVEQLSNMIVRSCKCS

## Recombinant human TGF-β1 (from UniProt P01137 279-390) (ligand)
  fold total 125I-TGF-β binding over mock transfectants: 2 fold

Source: patent US20080234216A1
